By Kd is commonly meant the constant that tells how readily two partners part at equilibrium. As usually defined, the stoichiometry N is a count of units in the complex or per binding partner.

For assay [1], the system named is Fab397. In words: Isothermal titration calorimetry (ITC), NANP repeat peptides to Fab397. To be noted: for TΔS / ΔH / ΔS / No. of sites (N-value) / Kd: ITC, arithmetic mean ± SD, n = 4; for TΔS / ΔH / ΔS: Fab397, 25 °C; for No. of sites (N-value) / Kd: peptide in syringe, 8.9 μM Fab397 in cell, DPBS, 25 °C, single-site model. Format: binding, human. The protocol:
Titrations were performed on a MicroCal Auto-iTC200 (GE Healthcare, Chicago, IL). Prior to the experiments, wild-type Fab397 was extensively dialyzed against Dulbecco's PBS (Thermo Fisher, Waltham, MA). […] The Fab and peptide concentrations were determined by UV absorbance at 280 nm and 205 nm. Molar extinction coefficients for the peptides at 205 nm were estimated using a previously published method. The titrations were all performed with peptides in the syringe and antibodies in the cell and consisted of 16 injections of 2.45 μL peptide at a rate of 0.5 μl/s […], with injection duration of 4.9 s, injection interval of 180 s, and reference power of 5 μCal. Experiments were conducted in quadruplet (N = 4) at 25 °C. Fitting of the integrated titration peaks was performed with Origin 7.0 software using a single-site binding model. The first data point was excluded from the fit as commonly done.
Data for sporozoite ELISA assay (N = 2) were fitted and plotted using GraphPad Prism, version 7.0. For mouse liver burden assay (N = 5 mice), data were compared for significance using a Mann–Whitney U test with p < 0.05 indicated a statistically significant difference. […] All statistical parameters and graphs for the mouse liver burden assay were calculated and plotted using R with the Hmisc and ggplot2 packages. Each ITC experiment was performed with four replicates (N = 4), and the data were reported as the arithmetic mean ± SD.
(In general: ITC needs no label: the signal is the heat of the interaction.)

Assay [2] deals with Fab317. Details: method as in PMID 29138320. The conditions noted are these: Fab317 with NPNA3; cited from earlier work.
Assay [3] addresses T1, biotinylated NPNA3 peptide (Biotin-linker-NPNANPNANPNA-NH2) (Plasmodium falciparum, synthetic CSP …, reading uncertain).
T1 construct: not shown: biotin, N-terminal, kept
T1 chain: {Biotin-linker}-NPNANPNANPNA-NH2
In words: BLI. To be noted: both partners purified.

Assay [4] has as its target T2, NPNA8 peptide (Ac-NPNANPNANPNANPNANPNANPNANPNANPNA-NH2) (Plasmodium falciparum, synthetic CSP …).
T2 construct: also called (NANP)8
T2 chain: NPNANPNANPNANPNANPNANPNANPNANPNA
In words: ITC. The conditions noted are these: both partners purified.

The target of assay [5] is T3, NPNA4 peptide (Ac-NPNANPNANPNANPNA-NH2) (Plasmodium falciparum, synthetic CSP …).
T3 construct: also called (NANP)4
T3 chain: Ac-NPNANPNANPNANPNA-NH2
Put plainly: ITC. The conditions noted are these: both partners purified.

In assay [6] the target is T2, NPNA8 peptide …. In words: negative-stain electron microscopy. The conditions noted are these: both partners purified.

* marks the point of attachment. Biotin = O=C1N[C@H]2[C@H](CS[C@H]2CCCCC(=O)*)N1; linker = not defined here

`CC(=O)N[C@@H](CC(N)=O)C(=O)N1CCC[C@H]1C(=O)N[C@@H](CC(N)=O)C(=O)N[C@@H](C)C(=O)N[C@@H](CC(N)=O)C(=O)N1CCC[C@H]1C(=O)N[C@@H](CC(N)=O)C(=O)N[C@@H](C)C(N)=O` [NPNA2]: in assay [1], the TΔS is -5.859 ± 0.593 kcal/mol, the ΔH was -13.303 ± 0.556 kcal/mol, the ΔS is on record as −19.7 ± 2.0 cal^−1·mol^−1·K^−1 and the “No. of sites (N-value)” value is 1.25 ± 0.02.
As to `CC(=O)N[C@@H](CC(N)=O)C(=O)N1CCC[C@H]1C(=O)N[C@@H](CC(N)=O)C(=O)N[C@@H](C)C(=O)N[C@@H](CC(N)=O)C(=O)N1CCC[C@H]1C(=O)N[C@@H](CC(N)=O)C(=O)N[C@@H](C)C(=O)N[C@@H](CC(N)=O)C(=O)N1CCC[C@H]1C(=O)N[C@@H](CC(N)=O)C(=O)N[C@@H](C)C(=O)N[C@@H](CC(N)=O)C(=O)N1CCC[C@H]1C(=O)N[C@@H](CC(N)=O)C(=O)N[C@@H](C)C(N)=O` [NPNA4], in assay [1], the TΔS was -9.884 ± 0.147 kcal/mol, the ΔH was -19.915 ± 0.102 kcal/mol, the ΔS is −33.2 ± 0.5 cal^−1·mol^−1·K^−1 and the Kd was 44 ± 3 nM. Besides, the “No. of sites (N-value)” value in assay [1] worked out at 1.14 ± 0.01.
As to “NPNA3: NPNA3 peptide, bound by Fab317 in ref 29 ({Biotin-linker}-NPNANPNANPNA-NH2; reading uncertain; also: linker not given here)”, in assay [2], the dissociation constant (Kd) is 78 ± 16 nM.
With `CC(=O)N[C@@H](CC(N)=O)C(=O)N1CCC[C@H]1C(=O)N[C@@H](CC(N)=O)C(=O)N[C@@H](C)C(=O)N[C@@H](CC(N)=O)C(=O)N1CCC[C@H]1C(=O)N[C@@H](CC(N)=O)C(=O)N[C@@H](C)C(=O)N[C@@H](CC(N)=O)C(=O)N1CCC[C@H]1C(=O)N[C@@H](CC(N)=O)C(=O)N[C@@H](C)C(=O)N[C@@H](CC(N)=O)C(=O)N1CCC[C@H]1C(=O)N[C@@H](CC(N)=O)C(=O)N[C@@H](C)C(=O)N[C@@H](CC(N)=O)C(=O)N1CCC[C@H]1C(=O)N[C@@H](CC(N)=O)C(=O)N[C@@H](C)C(=O)N[C@@H](CC(N)=O)C(=O)N1CCC[C@H]1C(=O)N[C@@H](CC(N)=O)C(=O)N[C@@H](C)C(=O)N[C@@H](CC(N)=O)C(=O)N1CCC[C@H]1C(=O)N[C@@H](CC(N)=O)C(=O)N[C@@H](C)C(=O)N[C@@H](CC(N)=O)C(=O)N1CCC[C@H]1C(=O)N[C@@H](CC(N)=O)C(=O)N[C@@H](C)C(N)=O` [NPNA8], the “binding stoichiometry inferred from N-value” in assay [1] (ITC with Fab397, peptide:Fab ratio, or number of Fabs per peptide as worded) is “two Fabs bind per peptide”. In assay [1], this molecule registered a TΔS of -30.024 ± 0.179 kcal/mol, a ΔH of -40.09 ± 0.143 kcal/mol, a ΔS of −100.7 ± 0.6 cal^−1·mol^−1·K^−1 and an equilibrium dissociation constant (Kd) of 41 ± 3 nM. The “No. of sites (N-value)” value in assay [1] turned out to be 0.56 ± 0.01.

B1: Fab317 wild type (Fab, V domains shown)
VH: QMQLVESGGGVVQPGRSLRLSCTASGFTFSTYAMHWVRQSPGQGLQWVAVISYHSTNKYYEDSVRGRFTISRDNSKNTLYLQMNSLRAEDTAVYYCARDGYSSSFFDFWGQGTLVTVSS
VL: DIQMTQSPSTLSASVGDRVAITCRASQSISRWLAWYQQQPGKAPKLLMSGASVLESGVPSRFSGSGSGTEFTLTISSLQPDDFATYYCQHYNSYFVTFGQGTKVEIK
B1: in assay [3], the other stood at 100%.

B2: Fab317 LW32A (Fab, V domains shown)
VH: QMQLVESGGGVVQPGRSLRLSCTASGFTFSTYAMHWVRQSPGQGLQWVAVISYHSTNKYYEDSVRGRFTISRDNSKNTLYLQMNSLRAEDTAVYYCARDGYSSSFFDFWGQGTLVTVSS
VL: DIQMTQSPSTLSASVGDRVAITCRASQSISRALAWYQQQPGKAPKLLMSGASVLESGVPSRFSGSGSGTEFTLTISSLQPDDFATYYCQHYNSYFVTFGQGTKVEIK
With B2, in assay [3], the other was 20%.

B3: Fab397 wild type (Fab, V domains shown)
VH: EVQLVKSGGGLVKPGGSLRLSCAVSGFTFTDAWMSWVRQAPGKGPEWVGRIKSNPDGGTTDYAAPVRGRFTISRDDSKNTLYLQMNNLKTEDTAVYYCITDRDFYRSGGSWGQGTLVTV
VL: DIVMTQSPLSLPVTPGEPASISCRSRQSLLYSNGDNYLDWYLQKPGQSPQLLIYLGSNRAPGVPDRFSGSGSGTDFTLKISRVEAEDVGVYYCMQTLQTPHTFGQGTKLEIK
In the case of B3, in assay [4], the Kd turned out to be 41 nM, the dH was -40.1 kcal/mol and the “stoichiometry N” value worked out at 0.56. Also, in assay [5], the equilibrium dissociation constant (Kd) is 44 nM, the dH is -19.9 kcal/mol and the “stoichiometry N” value was determined as 1.14. For the same molecule, the “stoichiometry N” value in assay [6] was 2. Also, the binding result in assay [3] is listed as “binds”.

B4: Fab397 HD95A (Fab, V domains shown)
VH: EVQLVKSGGGLVKPGGSLRLSCAVSGFTFTDAWMSWVRQAPGKGPEWVGRIKSNPDGGTTDYAAPVRGRFTISRDDSKNTLYLQMNNLKTEDTAVYYCITARDFYRSGGSWGQGTLVTV
VL: DIVMTQSPLSLPVTPGEPASISCRSRQSLLYSNGDNYLDWYLQKPGQSPQLLIYLGSNRAPGVPDRFSGSGSGTDFTLKISRVEAEDVGVYYCMQTLQTPHTFGQGTKLEIK
Consider B4, for which the binding result in assay [3] is given as “no binding (tested: 2000 nM)”.

B5: Fab397 LY32A (Fab, V domains shown)
VH: EVQLVKSGGGLVKPGGSLRLSCAVSGFTFTDAWMSWVRQAPGKGPEWVGRIKSNPDGGTTDYAAPVRGRFTISRDDSKNTLYLQMNNLKTEDTAVYYCITDRDFYRSGGSWGQGTLVTV
VL: DIVMTQSPLSLPVTPGEPASISCRSRQSLLYSNGDNALDWYLQKPGQSPQLLIYLGSNRAPGVPDRFSGSGSGTDFTLKISRVEAEDVGVYYCMQTLQTPHTFGQGTKLEIK
As to B5, the binding result in assay [3] is “no binding (tested: 2000 nM)”.

B6: Fab397 LD30A (Fab, V domains shown)
VH: EVQLVKSGGGLVKPGGSLRLSCAVSGFTFTDAWMSWVRQAPGKGPEWVGRIKSNPDGGTTDYAAPVRGRFTISRDDSKNTLYLQMNNLKTEDTAVYYCITDRDFYRSGGSWGQGTLVTV
VL: DIVMTQSPLSLPVTPGEPASISCRSRQSLLYSNGANYLDWYLQKPGQSPQLLIYLGSNRAPGVPDRFSGSGSGTDFTLKISRVEAEDVGVYYCMQTLQTPHTFGQGTKLEIK
Take B6: in assay [3], the other is 66%.

B7: Fab397 HW33A (Fab, V domains shown)
VH: EVQLVKSGGGLVKPGGSLRLSCAVSGFTFTDAAMSWVRQAPGKGPEWVGRIKSNPDGGTTDYAAPVRGRFTISRDDSKNTLYLQMNNLKTEDTAVYYCITDRDFYRSGGSWGQGTLVTV
VL: DIVMTQSPLSLPVTPGEPASISCRSRQSLLYSNGDNYLDWYLQKPGQSPQLLIYLGSNRAPGVPDRFSGSGSGTDFTLKISRVEAEDVGVYYCMQTLQTPHTFGQGTKLEIK
For the molecule B7, in assay [3], the binding result is reported as “no binding (tested: 2000 nM)”.

B8: Fab397 HR96A (Fab, V domains shown)
VH: EVQLVKSGGGLVKPGGSLRLSCAVSGFTFTDAWMSWVRQAPGKGPEWVGRIKSNPDGGTTDYAAPVRGRFTISRDDSKNTLYLQMNNLKTEDTAVYYCITDADFYRSGGSWGQGTLVTV
VL: DIVMTQSPLSLPVTPGEPASISCRSRQSLLYSNGDNYLDWYLQKPGQSPQLLIYLGSNRAPGVPDRFSGSGSGTDFTLKISRVEAEDVGVYYCMQTLQTPHTFGQGTKLEIK
In assay [3], B8 registered an other of 77%.

B9: Fab311 wild type (Fab, V domains shown)
VH: QVQLVESGGGVVPPGRSLRLSCATSGFTFSNYGMHWVRQAPGKGLEWVAIIWYDGSRNFYAASVEGRFTISRDNSKNTLYLQMNSLRVEDTAVYYCARAAYYDTSGYGDYWGQGTLVTVSS
VL: QSVLTQPPSVSGAPGQTVTISCTGGSSNIGAGYDVHWYQQLPGTAPKLLIYGNINRPSGVPDRFSGSKSGTSASLAITGLQAEDEADYYCQSYDRRLSGSWVFGGGTKLTVL
For the molecule B9, the binding result in assay [3] was “binds”.

B10: Fab311 HW52A (Fab, V domains shown)
VH: QVQLVESGGGVVPPGRSLRLSCATSGFTFSNYGMHWVRQAPGKGLEWVAIIAYDGSRNFYAASVEGRFTISRDNSKNTLYLQMNSLRVEDTAVYYCARAAYYDTSGYGDYWGQGTLVTVSS
VL: QSVLTQPPSVSGAPGQTVTISCTGGSSNIGAGYDVHWYQQLPGTAPKLLIYGNINRPSGVPDRFSGSKSGTSASLAITGLQAEDEADYYCQSYDRRLSGSWVFGGGTKLTVL
B10: the other in assay [3] was 26%.

The record behind these values is paper PMC7057269 (Journal of Molecular Biology, 2020).
